Test results: article PMC11970713 (The FEBS journal, 2024)

Biological target: the molecule itself
Assay: native gel or EMSA

B1: Full length wild-type LpCopA (copper-transporting P1B-1-ATPase from Legionella pneumophila, Lpg1024) (natural protein)
chain: not shown
For B1, the “stoichiometry N” value was 2.
